T1: Smc4 (S. cerevisiae, UniProt Q12267 1-1418)
T1 construct: Smc4, SMC subunit of budding yeast (S. cerevisiae) condensin, wild type; Only the head domain and proximal coiled coil are resolved in the maps; also called SMC4-3xStrepII
T1 sequence: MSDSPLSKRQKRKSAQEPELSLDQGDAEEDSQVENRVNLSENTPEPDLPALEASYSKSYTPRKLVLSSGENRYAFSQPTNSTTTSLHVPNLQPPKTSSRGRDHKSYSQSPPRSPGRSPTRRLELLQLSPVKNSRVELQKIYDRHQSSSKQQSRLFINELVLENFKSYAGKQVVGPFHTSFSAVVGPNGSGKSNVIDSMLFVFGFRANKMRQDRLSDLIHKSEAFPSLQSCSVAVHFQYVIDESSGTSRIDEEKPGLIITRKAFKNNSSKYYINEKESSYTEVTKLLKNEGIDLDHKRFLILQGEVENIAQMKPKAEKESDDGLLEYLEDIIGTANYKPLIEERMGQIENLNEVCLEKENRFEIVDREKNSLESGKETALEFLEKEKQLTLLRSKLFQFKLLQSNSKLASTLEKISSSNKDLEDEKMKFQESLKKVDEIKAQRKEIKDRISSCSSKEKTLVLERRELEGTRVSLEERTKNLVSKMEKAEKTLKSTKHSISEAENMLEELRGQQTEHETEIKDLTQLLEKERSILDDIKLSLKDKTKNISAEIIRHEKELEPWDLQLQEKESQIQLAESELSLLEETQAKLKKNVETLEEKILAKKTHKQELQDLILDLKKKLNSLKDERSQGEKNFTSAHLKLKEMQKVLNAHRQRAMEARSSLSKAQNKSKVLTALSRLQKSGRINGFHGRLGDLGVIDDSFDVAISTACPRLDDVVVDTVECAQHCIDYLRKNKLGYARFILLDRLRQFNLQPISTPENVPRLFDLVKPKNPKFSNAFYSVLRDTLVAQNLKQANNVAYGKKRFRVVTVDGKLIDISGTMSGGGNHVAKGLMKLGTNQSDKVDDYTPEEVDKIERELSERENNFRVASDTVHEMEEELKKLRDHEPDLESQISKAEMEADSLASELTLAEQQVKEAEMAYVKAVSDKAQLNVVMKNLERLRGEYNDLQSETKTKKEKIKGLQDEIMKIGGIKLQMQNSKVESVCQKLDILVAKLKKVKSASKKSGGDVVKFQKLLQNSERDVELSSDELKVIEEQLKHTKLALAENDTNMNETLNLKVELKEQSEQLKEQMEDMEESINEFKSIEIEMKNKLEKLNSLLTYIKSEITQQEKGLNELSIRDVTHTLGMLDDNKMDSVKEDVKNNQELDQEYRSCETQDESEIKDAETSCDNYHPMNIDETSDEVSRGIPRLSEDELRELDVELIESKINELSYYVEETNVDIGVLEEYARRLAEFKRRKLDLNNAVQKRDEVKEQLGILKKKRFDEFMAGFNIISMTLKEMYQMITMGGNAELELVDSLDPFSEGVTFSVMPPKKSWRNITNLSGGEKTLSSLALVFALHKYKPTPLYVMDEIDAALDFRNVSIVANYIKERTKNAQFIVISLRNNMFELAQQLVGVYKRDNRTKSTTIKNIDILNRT

B1: Smc2 (natural protein, S. cerevisiae)
chain: MKVEELIIDGFKSYATRTVITDWDPQFNAITGLNGSGKSNILDAICFVLGIASMSTVRASSLQDLIYKRGQAGVTKASVTIVFDNTDKSNSPIGFTNSPQISVTRQVVLGGTSKYLINGHRAPQQSVLQLFQSVQLNINNPNFLIMQGKITKVLNMKPSEILSLIEEAAGTKMFEDRREKAERTMSKKETKLQENRTLLTEEIEPKLEKLRNEKRMFLEFQSTQTDLEKTERIVVSYEYYNIKHKHTSIRETLENGETRMKMLNEFVKKTSEEIDSLNEDVEEIKLQKEKELHKEGTISKLENKENGLLNEISRLKTSLSIKVENLNDTTEKSKALESEIASSSAKLIEKKSAYANTEKDYKMVQEQLSKQRDLYKRKEELVSTLTTGISSTGAADGGYNAQLAKAKTELNEVSLAIKKSSMKMELLKKELLTIEPKLKEATKDNELNVKHVKQCQETCDKLRARLVEYGFDPSRIKDLKQREDKLKSHYYQTCKNSEYLKRRVTNLEFNYTKPYPNFEASFVHGVVGQLFQIDNDNIRYATALQTCAGGRLFNVVVQDSQTATQLLERGRLRKRVTIIPLDKIYTRPISSQVLDLAKKIAPGKVELAINLIRFDESITKAMEFIFGNSLICEDPETAKKITFHPKIRARSITLQGDVYDPEGTLSGGSRNTSESLLVDIQKYNQIQKQIETIQADLNHVTEELQTQYATSQKTKTIQSDLNLSLHKLDLAKRNLDANPSSQIIARNEEILRDIGECENEIKTKQMSLKKCQEEVSTIEKDMKEYDSDKGSKLNELKKELKLLAKELEEQESESERKYDLFQNLELETEQLSSELDSNKTLLHNHLKSIESLKLENSDLEGKIRGVEDDLVTVQTELNEEKKRLMDIDDELNELETLIKKKQDEKKSSELELQKLVHDLNKYKSNTNNMEKIIEDLRQKHEFLEDFDLVRNIVKQNEGIDLDTYRERSKQLNEKFQELRKKVNPNIMNMIENVEKKEAALKTMIKTIEKDKMKIQETISKLNEYKRETLVKTWEKVTLDFGNIFADLLPNSFAKLVPCEGKDVTQGLEVKVKLGNIWKESLIELSGGQRSLIALSLIMALLQFRPAPMYILDEVDAALDLSHTQNIGHLIKTRFKGSQFIVVSLKEGMFANANRVFRTRFQDGTSVVSIM
notes: Smc2, SMC subunit of budding yeast (S. cerevisiae) condensin, wild type; Expressed from pGAL10-SMC2 together with the other subunits; Only the head domain and proximal coiled coil are resolved in the maps
B2: Ycs4 (natural protein, S. cerevisiae)
chain: MSGFSLSEYLTKFQTTDRESYPRLQDPSRELNVIIDQLAVSPEQIDASPDSLEALIDLCHDFPHLTPKLQTQLSYLISSSLSNLSKDIKANLSSNVNFTEIGGLIPQWKRHLEEYGYLIQVLLTFLQDELHKVSSQSTNLNRSAKNSKNDSANVELFKRDCNQMENLLESITKLLEINLSKIFQTTPEKDLFIGLFTRPLFVLLEIEPVTKVSSLKMFIQRILAMCVKNHGQSSSIQSSLMTNLTYFLHLSVFNAELLKLLNDEYNYPQLTEDILKEISTRVFNAKDTTGPKAISNFLIKLSELSPGIMLRQMNLVITLLNNSSITLRCSVVEACGNIVAELAQDPQTMEHYKQQIAVLIELLEERFQDSNPYVRTKAIQGCSKICDLSSKFNKSKAKFTSLAVRSLQDRSSLVRRNSVKLLSKLLLKHPFKAIHGSQLRLSEWEEYLKGSESQLNSTLKKVESQETLNDTIERSLIEEEVEQDEGQCRTELEGSFNKSAELSRIENEVENINATNTSVLMKLKLMIVYYKDAISFIKEIHKSIELISNLLFSKNRNEVLESMDFLVLADAFDIELSEFGIKKMLHLVWMKGTNDEGTSISVHLIECYKQLFLTAPDSCNMQEKAAHIAKNLINLSIGASIADLASLEQLLGMMYEQKLIDQHVINILWAIYNSASKASMQKEQNVNNRDSEKGFSKEQIHGSIIILGMLSLADNEIALKGLESLLNIGLGAVGLKDLTLCRYSCLALERMVPKRSTIITKAINQELEDVAVKKLYAIIINYTKDNEYYPMCEQALSALFTISSKPDILATDLIREKTMMTFGKPEEEDSILSLEQSSRVVSLSQLLFIVGQVAIKTLVYLEKCEAEFKKRKIEAETRNGKVKNQGADVTNTTQDNGGDKELEMIGGTNEDDFTDAIQFVKENELLFGEKSILGKFCPIVEEIVSNSSRFSDPMLQRTATLCLEKLMCLSSKYCEKSLPLLITVMEKSPDPTIRSNAVLGLGDMAVCFNNLVDENTDYLYRRLHDENLMVQRTCLMTVTFLILAGQVKVKGQLGEMAKCLDNPDQGISDMCRLFFTELASKDNAIYNGFIDIFSNLSSDDLLGKESFKKIIKFLLTFIDKERHQKQLNEKLVGRLRKCETQKQWDDIAFVLNNLPYKNEDVTALLEQGFKVVSAKE
notes: Ycs4, HAWK subunit of budding yeast (S. cerevisiae) condensin, wild type

Experiments:
Conditions in all cases: both partners purified
[1] = molecular target: B2; test: cryo-EM structure; condensin pentamer (Smc2, Smc4, Brn1, Ycs4, Ycg1) with 80 bp dsDNA, ADP and BeF3; separate maps of the head module and of Ycg1-DNA from one dataset
[2] = molecular target: T1, Smc4; test: cryo-EM structure; condensin tetramer (Smc2, Smc4, Brn1, Ycs4) with 80 bp dsDNA, 5 mM ADP, 1 mM BeSO4, 10 mM NaF; TNT buffer (30 mM Tris/HCl, 60 mM NaCl, 1 mM TCEP, 2 mM MgCl2, pH 7.5); head module, Forms I and II
[3] = molecular target: T1, Smc4; test: cryo-EM structure; condensin pentamer (Smc2, Smc4, Brn1, Ycs4, Ycg1) with 80 bp dsDNA, ADP and BeF3; separate maps of the head module and of Ycg1-DNA from one dataset

| binding result [1] | binding result [2] | binding result [3] | Binder |
| --- | --- | --- | --- |
| binds | binds | – | B1 |
| – | – | binds | B2 |

Source: paper doi:10.1101/2021.10.29.466484, “Clamping of DNA shuts the condensin neck gate” (bioRxiv, 2021)
